# Measured values taken from patent publication US20210246166A1 (Bayer, published 2021).
# Numbered stars: 1 amine (or outer) side, 2 acyl side, 3 side chain; on linkers, the order of the positions; unused ones are H or OH. Bridge positions count the residues as written; N and C are the ends. Square brackets hold non-standard residues; d marks the D form. Primed or numbered codes have the meaning given here. Ends that are not written are not given here. * marks the point of attachment. Phe(2,5-F2) = 2,5-difluorophenylalanine, O=C([C@H](Cc1cc(F)ccc1F)N[*:1])[*:2]; X12 = (S)‑(trifluoromethyl)‑L‑cysteine, O=C([C@H](CSC(F)(F)F)N[*:1])[*:2]; Tranexamic″ = tranexamic acid, NC[C@H]1CC[C@@H](C(=O)*)CC1; Oic = O=C(O)[C@@H]1C[C@@H]2CCCC[C@@H]2N1; tBuAla = CC(C)(C)C[C@H](N)C(=O)O; Gly(cBu) = N[C@H](C(=O)O)C1CCC1; Chg = N[C@H](C(=O)O)C1CCCCC1; Pen = CC(C)(S)[C@H](N)C(=O)O; NMeC = CN[C@@H](CS)C(=O)O; Orn = NCCC[C@H](N)C(=O)O; Abu = CC[C@H](N)C(=O)O; PEG2 = NCCOCCOCCC(=O)O; Sar = CNCC(=O)O
# T1: Recombinant human MASP1 enzyme (fragment corresponding to amino acids 297-699, C-terminal His Tag) (human, UniProt P48740 297-699)
# T1 sequence: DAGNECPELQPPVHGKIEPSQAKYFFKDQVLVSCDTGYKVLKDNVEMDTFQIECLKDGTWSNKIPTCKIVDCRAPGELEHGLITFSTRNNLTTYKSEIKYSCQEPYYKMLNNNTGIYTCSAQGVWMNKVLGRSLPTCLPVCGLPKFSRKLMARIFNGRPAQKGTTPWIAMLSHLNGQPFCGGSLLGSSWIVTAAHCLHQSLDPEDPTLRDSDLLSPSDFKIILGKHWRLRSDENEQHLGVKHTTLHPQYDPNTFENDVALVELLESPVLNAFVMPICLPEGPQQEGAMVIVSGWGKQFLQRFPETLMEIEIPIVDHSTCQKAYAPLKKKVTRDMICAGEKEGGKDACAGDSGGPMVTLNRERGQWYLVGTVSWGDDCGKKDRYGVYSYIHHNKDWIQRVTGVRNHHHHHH
# B1: (Abu)-IC+SRSLPPIC+IPD-NH2 (peptide)
# peptide: [Abu]ICSRSLPPICIPD-NH2
# modifications: disulfide 3-11; N-terminus assumed
# SMILES: CC[C@H](N)C(=O)N[C@H](C(=O)N[C@H]1CSSC[C@@H](C(=O)N[C@H](C(=O)N2CCC[C@H]2C(=O)N[C@@H](CC(=O)O)C(N)=O)[C@@H](C)CC)NC(=O)[C@H]([C@@H](C)CC)NC(=O)[C@@H]2CCCN2C(=O)[C@@H]2CCCN2C(=O)[C@H](CC(C)C)NC(=O)[C@H](CO)NC(=O)[C@H](CCCNC(=N)N)NC(=O)[C@H](CO)NC1=O)[C@@H](C)CC
# B2: aIC+SRS-((S)-(trifluoromethyl)-L-cysteine)-PPI-(Pen)+IP-NH2 (peptide)
# peptide: [dA]ICSRS[X12]PPI[Pen]IP-NH2
# modifications: disulfide 3-11; N-terminus assumed
# SMILES: CC[C@H](C)[C@H](NC(=O)[C@@H](C)N)C(=O)N[C@H]1CSSC(C)(C)[C@@H](C(=O)N[C@H](C(=O)N2CCC[C@H]2C(N)=O)[C@@H](C)CC)NC(=O)[C@H]([C@@H](C)CC)NC(=O)[C@@H]2CCCN2C(=O)[C@@H]2CCCN2C(=O)[C@H](CSC(F)(F)F)NC(=O)[C@H](CO)NC(=O)[C@H](CCCNC(=N)N)NC(=O)[C@H](CO)NC1=O
# B3: (Orn)-IC+SRSLPP-(Chg)-C+IPD-OH (peptide)
# peptide: [Orn]ICSRSLPP[Chg]CIPD-OH
# modifications: disulfide 3-11; N-terminus assumed
# SMILES: CC[C@H](C)[C@H](NC(=O)[C@@H](N)CCCN)C(=O)N[C@H]1CSSC[C@@H](C(=O)N[C@H](C(=O)N2CCC[C@H]2C(=O)N[C@@H](CC(=O)O)C(=O)O)[C@@H](C)CC)NC(=O)[C@H](C2CCCCC2)NC(=O)[C@@H]2CCCN2C(=O)[C@@H]2CCCN2C(=O)[C@H](CC(C)C)NC(=O)[C@H](CO)NC(=O)[C@H](CCCNC(=N)N)NC(=O)[C@H](CO)NC1=O
# B4: AIC+SRSLPPIC+(Cbg)-PD-NH2 (peptide)
# peptide: AICSRSLPPIC[Gly(cBu)]PD-NH2
# modifications: disulfide 3-11; N-terminus assumed
# SMILES: CC[C@H](C)[C@H](NC(=O)[C@H](C)N)C(=O)N[C@H]1CSSC[C@@H](C(=O)N[C@H](C(=O)N2CCC[C@H]2C(=O)N[C@@H](CC(=O)O)C(N)=O)C2CCC2)NC(=O)[C@H]([C@@H](C)CC)NC(=O)[C@@H]2CCCN2C(=O)[C@@H]2CCCN2C(=O)[C@H](CC(C)C)NC(=O)[C@H](CO)NC(=O)[C@H](CCCNC(=N)N)NC(=O)[C@H](CO)NC1=O
# B5: (2-(3-Pyridyl)acetic acid)-IC+SRS-((tBu)A)-PPI-(Pen)+IP-NH2 (peptide)
# peptide: {2‑(3-Pyridyl)acetyl}-ICSRS[tBuAla]PPI[Pen]IP-NH2
# modifications: disulfide 2-10
# B6: AIC+SRS-((tBu)A)-P-(Oic)-I-C+IPD-NH2 (peptide)
# peptide: AICSRS[tBuAla]P[Oic]ICIPD-NH2
# modifications: disulfide 3-11; N-terminus assumed
# SMILES: CC[C@H](C)[C@H](NC(=O)[C@H](C)N)C(=O)N[C@H]1CSSC[C@@H](C(=O)N[C@H](C(=O)N2CCC[C@H]2C(=O)N[C@@H](CC(=O)O)C(N)=O)[C@@H](C)CC)NC(=O)[C@H]([C@@H](C)CC)NC(=O)[C@@H]2C[C@@H]3CCCC[C@@H]3N2C(=O)[C@@H]2CCCN2C(=O)[C@H](CC(C)(C)C)NC(=O)[C@H](CO)NC(=O)[C@H](CCCNC(=N)N)NC(=O)[C@H](CO)NC1=O
# B7: AIC+SRSLPP-(Chg)-C+IPD-OH (peptide)
# peptide: AICSRSLPP[Chg]CIPD-OH
# modifications: disulfide 3-11; N-terminus assumed
# SMILES: CC[C@H](C)[C@H](NC(=O)[C@H](C)N)C(=O)N[C@H]1CSSC[C@@H](C(=O)N[C@H](C(=O)N2CCC[C@H]2C(=O)N[C@@H](CC(=O)O)C(=O)O)[C@@H](C)CC)NC(=O)[C@H](C2CCCCC2)NC(=O)[C@@H]2CCCN2C(=O)[C@@H]2CCCN2C(=O)[C@H](CC(C)C)NC(=O)[C@H](CO)NC(=O)[C@H](CCCNC(=N)N)NC(=O)[C@H](CO)NC1=O
# B8: AIC+SRS-((2,5-Difluoro)F)-PPI-((N-Me)C)+IPD-NH2 (peptide)
# peptide: AICSRS[Phe(2,5-F2)]PPI[NMeC]IPD-NH2
# modifications: disulfide 3-11; N-terminus assumed
# SMILES: CC[C@H](C)[C@H](NC(=O)[C@H](C)N)C(=O)N[C@H]1CSSC[C@@H](C(=O)N[C@H](C(=O)N2CCC[C@H]2C(=O)N[C@@H](CC(=O)O)C(N)=O)[C@@H](C)CC)N(C)C(=O)[C@H]([C@@H](C)CC)NC(=O)[C@@H]2CCCN2C(=O)[C@@H]2CCCN2C(=O)[C@H](Cc2cc(F)ccc2F)NC(=O)[C@H](CO)NC(=O)[C@H](CCCNC(=N)N)NC(=O)[C@H](CO)NC1=O
# B9: (Orn)-IC+SRSLPPIC+I-NH2 (peptide)
# peptide: [Orn]ICSRSLPPICI-NH2
# modifications: disulfide 3-11; N-terminus assumed
# SMILES: CC[C@H](C)[C@H](NC(=O)[C@@H]1CSSC[C@H](NC(=O)[C@@H](NC(=O)[C@@H](N)CCCN)[C@@H](C)CC)C(=O)N[C@@H](CO)C(=O)N[C@@H](CCCNC(=N)N)C(=O)N[C@@H](CO)C(=O)N[C@@H](CC(C)C)C(=O)N2CCC[C@H]2C(=O)N2CCC[C@H]2C(=O)N[C@@H]([C@@H](C)CC)C(=O)N1)C(N)=O
# B10: AIC+SRS-((tBu)A)-P-(Oic)-I-((N-Me)C)+IPD-OH (peptide)
# peptide: AICSRS[tBuAla]P[Oic]I[NMeC]IPD-OH
# modifications: disulfide 3-11; N-terminus assumed
# SMILES: CC[C@H](C)[C@H](NC(=O)[C@H](C)N)C(=O)N[C@H]1CSSC[C@@H](C(=O)N[C@H](C(=O)N2CCC[C@H]2C(=O)N[C@@H](CC(=O)O)C(=O)O)[C@@H](C)CC)N(C)C(=O)[C@H]([C@@H](C)CC)NC(=O)[C@@H]2C[C@@H]3CCCC[C@@H]3N2C(=O)[C@@H]2CCCN2C(=O)[C@H](CC(C)(C)C)NC(=O)[C@H](CO)NC(=O)[C@H](CCCNC(=N)N)NC(=O)[C@H](CO)NC1=O
# B11: (2-(Cyclohexylamino)acetyl)-IC+SRS-((tBu)A)-PPI-(Pen)+IPD-NH2 (peptide)
# peptide: [2‑(Cyclohexylamino)acetyl]ICSRS[tBuAla]PPI[Pen]IPD-NH2
# modifications: disulfide 3-11
# B12: ((N-Me)G)-IC+SRSLPPI-((N-Me)C)+IPD-OH (peptide)
# peptide: [Sar]ICSRSLPPI[NMeC]IPD-OH
# modifications: disulfide 3-11; N-terminus assumed
# SMILES: CC[C@H](C)[C@H](NC(=O)CNC)C(=O)N[C@H]1CSSC[C@@H](C(=O)N[C@H](C(=O)N2CCC[C@H]2C(=O)N[C@@H](CC(=O)O)C(=O)O)[C@@H](C)CC)N(C)C(=O)[C@H]([C@@H](C)CC)NC(=O)[C@@H]2CCCN2C(=O)[C@@H]2CCCN2C(=O)[C@H](CC(C)C)NC(=O)[C@H](CO)NC(=O)[C@H](CCCNC(=N)N)NC(=O)[C@H](CO)NC1=O
# B13: (Tranexamic)-IC+SRS-((tBu)A)-PPI-(Pen)+IP-(PEG1(10 atoms))-NH2 (peptide)
# peptide: {Tranexamic″}-ICSRS[tBuAla]PPI[Pen]IP-{PEG2-NH2}
# modifications: disulfide 2-10
# SMILES: CC[C@H](C)[C@@H]1NC(=O)[C@@H]2CCCN2C(=O)[C@@H]2CCCN2C(=O)[C@H](CC(C)(C)C)NC(=O)[C@H](CO)NC(=O)[C@H](CCCNC(=N)N)NC(=O)[C@H](CO)NC(=O)[C@@H](NC(=O)[C@@H](NC(=O)[C@H]2CC[C@@H](CN)CC2)[C@@H](C)CC)CSSC(C)(C)[C@@H](C(=O)N[C@H](C(=O)N2CCC[C@H]2C(=O)NCCOCCOCCC(N)=O)[C@@H](C)CC)NC1=O
# B14: WIC+SRS-((tBu)A)-PPI-((N-Me)C)+I-NH2 (peptide)
# peptide: WICSRS[tBuAla]PPI[NMeC]I-NH2
# modifications: disulfide 3-11; N-terminus assumed
# SMILES: CC[C@H](C)[C@H](NC(=O)[C@@H]1CSSC[C@H](NC(=O)[C@@H](NC(=O)[C@@H](N)Cc2c[nH]c3ccccc23)[C@@H](C)CC)C(=O)N[C@@H](CO)C(=O)N[C@@H](CCCNC(=N)N)C(=O)N[C@@H](CO)C(=O)N[C@@H](CC(C)(C)C)C(=O)N2CCC[C@H]2C(=O)N2CCC[C@H]2C(=O)N[C@@H]([C@@H](C)CC)C(=O)N1C)C(N)=O
# B15: AIC+SRSLP-(Oic)-IC+IPD-NH2 (peptide)
# peptide: AICSRSLP[Oic]ICIPD-NH2
# modifications: disulfide 3-11; N-terminus assumed
# SMILES: CC[C@H](C)[C@H](NC(=O)[C@H](C)N)C(=O)N[C@H]1CSSC[C@@H](C(=O)N[C@H](C(=O)N2CCC[C@H]2C(=O)N[C@@H](CC(=O)O)C(N)=O)[C@@H](C)CC)NC(=O)[C@H]([C@@H](C)CC)NC(=O)[C@@H]2C[C@@H]3CCCC[C@@H]3N2C(=O)[C@@H]2CCCN2C(=O)[C@H](CC(C)C)NC(=O)[C@H](CO)NC(=O)[C@H](CCCNC(=N)N)NC(=O)[C@H](CO)NC1=O
# Target: Recombinant human MASP2 enzyme (fragment corresponding to amino acids 297-686, C-terminal His Tag) (human, UniProt O00187 297-686)
# Sequence (O00187 other isoform, or with tags, fused parts or gaps limits assumed): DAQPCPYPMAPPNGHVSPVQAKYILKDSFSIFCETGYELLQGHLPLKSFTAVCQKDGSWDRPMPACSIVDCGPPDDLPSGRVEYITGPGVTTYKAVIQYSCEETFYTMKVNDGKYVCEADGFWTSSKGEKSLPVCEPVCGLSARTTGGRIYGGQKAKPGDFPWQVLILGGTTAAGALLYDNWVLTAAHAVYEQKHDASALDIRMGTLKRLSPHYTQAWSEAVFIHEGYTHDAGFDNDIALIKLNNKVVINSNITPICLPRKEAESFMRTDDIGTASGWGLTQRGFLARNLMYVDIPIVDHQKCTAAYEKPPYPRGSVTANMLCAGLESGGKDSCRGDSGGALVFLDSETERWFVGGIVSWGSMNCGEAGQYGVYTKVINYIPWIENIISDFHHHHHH
# Test: cell-based or functional assay
row,Binder,human MASP2 IC50 [nM]
1,B1,300
2,B2,19
3,B3,49
4,B4,410
5,B5,8.5
6,B6,260
7,B7,140
8,B8,63
9,B9,190
10,B10,190
11,B11,200
12,B12,1700
13,B13,13
14,B14,120
15,B15,400

# Target: T1, Recombinant human MASP1 enzyme …
# Test: cell-based or functional assay
row,Binder,human MASP1 IC50 [nM]
1,B1,7.2
2,B2,7.3
3,B3,6.9
4,B4,6.5
5,B5,7
6,B6,7.4
7,B7,6.5
8,B8,7.6
9,B9,7.8
10,B10,7.2
11,B11,7.1
12,B12,7.3
13,B13,6.5
14,B14,6.6
15,B15,6.9
